Laboratory results published in doi:10.1101/2023.03.23.533938 (bioRxiv, 2023).
Positions count from the first letter of the chain named.

T1: Sfr1, wild type (S. pombe, UniProt Q9USV1 1-299)
T1 sequence: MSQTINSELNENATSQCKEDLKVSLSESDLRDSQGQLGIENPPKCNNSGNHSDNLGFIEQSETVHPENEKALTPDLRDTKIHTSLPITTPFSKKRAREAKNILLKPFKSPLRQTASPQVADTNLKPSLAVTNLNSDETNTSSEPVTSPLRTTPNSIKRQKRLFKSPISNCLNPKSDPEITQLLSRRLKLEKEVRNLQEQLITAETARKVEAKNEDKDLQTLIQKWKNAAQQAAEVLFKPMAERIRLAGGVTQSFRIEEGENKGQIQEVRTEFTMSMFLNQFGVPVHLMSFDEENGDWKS

T2: Swi5-Sfr1 complex, wild type (S. pombe, UniProt Q9USV1;Q9UUB7)
T2 sequence 1: T1 sequence
T2 sequence 2: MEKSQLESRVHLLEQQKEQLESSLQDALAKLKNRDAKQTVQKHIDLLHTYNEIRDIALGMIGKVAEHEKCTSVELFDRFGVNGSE

B1: Swi5 (natural protein)
chain: T2 sequence 2
B2: Swi5-Sfr1 phosphomimetic mutant complex (complex)
chain 1: T1 sequence with S24D, T73D, S109D, S116D, S165D
chain 2: T2 sequence 2
B3: Rad51 (natural protein)
chain: MADTEVEMQVSAADTNNNENGQAQSNYEYDVNVQDEEDEAAAGPMPLQMLEGNGITASDIKKIHEAGYYTVESIAYTPKRQLLLIKGISEAKADKLLGEASKLVPMGFTTATEYHIRRSELITITTGSKQLDTLLQGGVETGSITELFGEFRTGKSQICHTLAVTCQLPIDMGGGEGKCLYIDTEGTFRPVRLLAVADRYGLNGEEVLDNVAYARAYNADHQLELLQQAANMMSESRFSLLVVDSCTALYRTDFSGRGELSARQMHLARFMRTLQRLADEFGIAVVITNQVVAQVDGISFNPDPKKPIGGNILAHSSTTRLSLRKGRGEQRICKIYDSPCLPESEAIFAINSDGVGDPKEIIAPV

What was measured:
Sfr1, wild type = target: T1, Sfr1, wild type; assay: SEC
Rad51 = target: B3; assay: pull-down
[1] = target: T2, Swi5-Sfr1 complex, wild type; assay: pull-down

Binder: B1
binding result (Sfr1, wild type): binds

Binder: B2
fold reduction in co-precipitation with Rad51 against wild type (Rad51): ~5 fold

Binder: B3
binding result [1]: binds
